Where no end group is shown, it is not given here. Me3 = trimethyl-lysine (Kme3); Me2 = dimethyl-lysine (Kme2)
B1: PogZ(1117–1410) (domain or fragment)
chain: SNAASLPLSMIVAIDEISLFLDTEVLSSDDRKENALQTVGTGEPWCDVVLAILADGTVLPTLVFYRGQMDQPANMPDSILLEAKESGYSDDEIMELWSTRVWQKHTACQRSKGMLVMDCHRTHLSEEVLAMLSASSTLPAVVPAGCSSKIQPLDVCIKRTVKNFLHKKWKEQAREMADTACDSDVLLQLVLVWLGEVLGVIGDCPELVQRSFLVASVLPGPDGNINSPTRNADMQEELIASLEEQLKLSGEHSESSTPRPRSSPEETIEPESLHQLFEGESETESFYGFEEADLDLMEI

Key:
LEDGF/p52 = LEDGF/p52 (UniProt O75475-2 1-333); experiment: NMR titration
LEDGF/p75 = LEDGF/p75 (UniProt O75475 1-530); experiment: SEC

Binder | Kd (LEDGF/p52) | binding result (LEDGF/p75)
SAPATGGVK(Me)KPHRY [histone H3 peptide SAPATGGVKme1KPHRY] | 5.4 mM | 
B1 |  | binds
SAPATGGVK(Me2)KPHRY [histone H3 peptide SAPATGGVKme2KPHRY] | 2.4 mM | 
SAPATGGVK(Me3)KPHRY [histone H3 peptide SAPATGGVKme3KPHRY] | 2.7 mM | 
SAPATGGVKKPHRY [histone H3 peptide SAPATGGVKKPHRY, unmodified] | 6 mM | 

— PMC10570030 (Nucleic Acids Research, 2023)
